The text below walks through data of patent publication US7563610 (Takeda / Millennium, dated 2009).

The series concerns the molecule itself. As to the kind of experiment: X-ray crystal structure (homodimer in the asymmetric unit).

B1: IspA (farnesyl pyrophosphate synthase) from E. coli, full length with non-cleavable N-terminal six histidine tag (enzyme)
chain: MGSDKIIHHHHHHTLMDFPQQLEACVKQANQALSRFIAPLPFQNTPVVETMQYGALLGGKRLRPFLVYATGHMFGVSTNTLDAPAAAVECIHAYSLIHDDLPAMDDDDLRRGLPTCHVKFGEANAILAGDALQTLAFSILSDADMPEVSDRDRISMISELASASGIAGMCGGQALDLDAEGKHVPLDALERIHRHKTGALIRAAVRLGALSAGDKGRRALPVLDKYAESIGLAFQVQDDILDVVGDTATLGKRQGADQQLGKSTYPALLGLEQARKKARDLIDDARQSLKQLAEQSLDTSALEALADYIIQRNK
notes: Two copies form the dimer in the crystal; also called FPPS
Take B1: the binding result was “binds”.
